Data taken from the supplement of paper PMC10567573.

B1: FAM98B (parent)
chain: QLDKNSEVYQEVQAMFDTLGIPKS

Variants of: B1
Experiment: protein stability index of a GFP-peptide fusion (GPS, HEK-293T) (PSI 1-6); higher = more stable
Details: c terminus: a fixed tail appended
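Note: lentivirally expressed fusions sorted by FACS into six bins by GFP to DsRed ratio, PSI derived from sequencing read proportions per bin multiplied by bin number.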

Variant	protein stability index
QLDKNSEVYQAVQAMFDTLGIPKS	2.86
QLDKNSEVYQCVQAMFDTLGIPKS	2.48
QLDKNSEVYQDVQAMFDTLGIPKS	2.86
QLDKNSEVYQFVQAMFDTLGIPKS	2.07
QLDKNSEVYQGVQAMFDTLGIPKS	2.78
QLDKNSEVYQHVQAMFDTLGIPKS	3.46
QLDKNSEVYQIVQAMFDTLGIPKS	1.67
QLDKNSEVYQKVQAMFDTLGIPKS	1.69
QLDKNSEVYQLVQAMFDTLGIPKS	2.28
QLDKNSEVYQMVQAMFDTLGIPKS	2.36
QLDKNSEVYQNVQAMFDTLGIPKS	2.64
QLDKNSEVYQPVQAMFDTLGIPKS	2.88
QLDKNSEVYQQVQAMFDTLGIPKS	2.3
QLDKNSEVYQRVQAMFDTLGIPKS	3.38
QLDKNSEVYQSVQAMFDTLGIPKS	2.62
QLDKNSEVYQTVQAMFDTLGIPKS	3.13
QLDKNSEVYQVVQAMFDTLGIPKS	2.56
QLDKNSEVYQWVQAMFDTLGIPKS	1.27
QLDKNSEVYQYVQAMFDTLGIPKS	2.7
QLDKNSEVYQEAQAMFDTLGIPKS	3
QLDKNSEVYQECQAMFDTLGIPKS	3.36
QLDKNSEVYQEDQAMFDTLGIPKS	4.19
QLDKNSEVYQEEQAMFDTLGIPKS	3.5
QLDKNSEVYQEFQAMFDTLGIPKS	3.48

Variant	protein stability index
QLDKNSEVYQEGQAMFDTLGIPKS	4
QLDKNSEVYQEHQAMFDTLGIPKS	3.42
QLDKNSEVYQEIQAMFDTLGIPKS	3.04
QLDKNSEVYQEKQAMFDTLGIPKS	3.22
QLDKNSEVYQELQAMFDTLGIPKS	3.1
QLDKNSEVYQEMQAMFDTLGIPKS	3.29
QLDKNSEVYQENQAMFDTLGIPKS	3.53
QLDKNSEVYQEPQAMFDTLGIPKS	3.34
QLDKNSEVYQEQQAMFDTLGIPKS	3.56
QLDKNSEVYQERQAMFDTLGIPKS	2.8
QLDKNSEVYQESQAMFDTLGIPKS	2.77
QLDKNSEVYQETQAMFDTLGIPKS	3.52
QLDKNSEVYQEWQAMFDTLGIPKS	3.85
QLDKNSEVYQEYQAMFDTLGIPKS	2.56
QLDKNSEVYQEVAAMFDTLGIPKS	3.58
QLDKNSEVYQEVCAMFDTLGIPKS	2.88
QLDKNSEVYQEVDAMFDTLGIPKS	3.82
QLDKNSEVYQEVEAMFDTLGIPKS	3.34
QLDKNSEVYQEVFAMFDTLGIPKS	2.53
QLDKNSEVYQEVGAMFDTLGIPKS	3.09
QLDKNSEVYQEVHAMFDTLGIPKS	3.03
QLDKNSEVYQEVIAMFDTLGIPKS	3.19
QLDKNSEVYQEVKAMFDTLGIPKS	2.55
QLDKNSEVYQEVLAMFDTLGIPKS	3.29

Variant	protein stability index
QLDKNSEVYQEVMAMFDTLGIPKS	2.73
QLDKNSEVYQEVNAMFDTLGIPKS	2.56
QLDKNSEVYQEVPAMFDTLGIPKS	3.27
QLDKNSEVYQEVRAMFDTLGIPKS	2.59
QLDKNSEVYQEVSAMFDTLGIPKS	3.24
QLDKNSEVYQEVTAMFDTLGIPKS	3.86
QLDKNSEVYQEVVAMFDTLGIPKS	3.15
QLDKNSEVYQEVWAMFDTLGIPKS	2.24
QLDKNSEVYQEVYAMFDTLGIPKS	2.36
QLDKNSEVYQEVQCMFDTLGIPKS	3.04
QLDKNSEVYQEVQDMFDTLGIPKS	3.82
QLDKNSEVYQEVQEMFDTLGIPKS	3.79
QLDKNSEVYQEVQFMFDTLGIPKS	2.64
QLDKNSEVYQEVQGMFDTLGIPKS	2.58
QLDKNSEVYQEVQHMFDTLGIPKS	3.14
QLDKNSEVYQEVQIMFDTLGIPKS	3.22
QLDKNSEVYQEVQKMFDTLGIPKS	3.03
QLDKNSEVYQEVQLMFDTLGIPKS	2.83
QLDKNSEVYQEVQMMFDTLGIPKS	2.89
QLDKNSEVYQEVQNMFDTLGIPKS	4.67
QLDKNSEVYQEVQPMFDTLGIPKS	3.81
QLDKNSEVYQEVQQMFDTLGIPKS	3.61
QLDKNSEVYQEVQRMFDTLGIPKS	2.55
QLDKNSEVYQEVQSMFDTLGIPKS	3.37

Variant	protein stability index
QLDKNSEVYQEVQTMFDTLGIPKS	3.34
QLDKNSEVYQEVQVMFDTLGIPKS	2.77
QLDKNSEVYQEVQWMFDTLGIPKS	2.63
QLDKNSEVYQEVQYMFDTLGIPKS	3.22
QLDKNSEVYQEVQAAFDTLGIPKS	2.88
QLDKNSEVYQEVQACFDTLGIPKS	2.73
QLDKNSEVYQEVQADFDTLGIPKS	3.68
QLDKNSEVYQEVQAEFDTLGIPKS	4.28
QLDKNSEVYQEVQAFFDTLGIPKS	3.5
QLDKNSEVYQEVQAGFDTLGIPKS	3.69
QLDKNSEVYQEVQAHFDTLGIPKS	3.08
QLDKNSEVYQEVQAIFDTLGIPKS	3.24
QLDKNSEVYQEVQAKFDTLGIPKS	3.32
QLDKNSEVYQEVQALFDTLGIPKS	2.94
QLDKNSEVYQEVQANFDTLGIPKS	3.1
QLDKNSEVYQEVQAPFDTLGIPKS	3.27
QLDKNSEVYQEVQAQFDTLGIPKS	3.56
QLDKNSEVYQEVQARFDTLGIPKS	3.34
QLDKNSEVYQEVQASFDTLGIPKS	3.22
QLDKNSEVYQEVQATFDTLGIPKS	3.25
QLDKNSEVYQEVQAVFDTLGIPKS	2.91
QLDKNSEVYQEVQAWFDTLGIPKS	3.55
